Experimental data taken from article doi:10.1101/2024.03.04.583282v1.

How the values were obtained:
Details in all cases: acCoA co-substrate, 50 mM Tris-HCl pH 8.5, 150 mM NaCl, 25 °C
purified protein [1] = substrate: NCCCC[C@H](N)C(=O)O; assay: purified protein
purified protein [2] = substrate: NCCCN; assay: purified protein
[3] = substrate: NCCCCN; assay: DTNB acetyltransferase assay; format: biochemical, Arabidopsis thaliana
[4] = substrate: NCCCNCCCCNCCCN; assay: DTNB acetyltransferase assay; format: biochemical, Arabidopsis thaliana
[5] = substrate: NCCSC[C@H](N)C(=O)O; assay: DTNB acetyltransferase assay; format: biochemical, Arabidopsis thaliana
purified protein [6] = substrate: NCCC[C@H](N)C(=O)O; assay: purified protein

Row | Protein | Km (purified protein [1]) | kcat (purified protein [1]) | Km (purified protein [2]) | kcat (purified protein [2]) | Km [3] | kcat [3] | Km [4] | kcat [4] | Km [5] | kcat [5] | Km (purified protein [6]) | kcat (purified protein [6])
1 | NATA2Δ (Arabidopsis thaliana) (protein) MFSRIRLATPSDVPFIHKLIHQMAVFERLTHLFSATESGLASTLFTSRPFQSFTVFLLEVSRSPFPATITSSPSPDFTPFFKTHNLDLPIDDPESYNFSPDMLNDVVVAGFVLFFPNYSSFLSKPGFYIEDIFVREPYRRKGFGSMLLTAVAKQAVKMGYGRVEWVVLDWNVNAIKFYEQMGAQILQEWRVCRLTGDALEAFDQVNI | 9480 ± 2530 µM | 0.45 ± 0.10 s⁻¹ | 370 ± 70 µM | 1.46 ± 0.07 s⁻¹ | 2290 ± 480 µM | 1.04 ± 0.07 s⁻¹ | 1620 ± 350 µM | 1.49 ± 0.08 s⁻¹ | 330 ± 80 µM | 2.20 ± 0.10 s⁻¹ | – | –
2 | NATA1Δ (Arabidopsis thaliana) (protein) TGHRMFSRIRLATPTDVPFIHKLIHQMAVFERLTHLFVATESGLASTLFNSRPFQAVTVFLLEISPSPFPTTHDASSPDFTPFLETHKVDLPIEDPDREKFLPDKLNDVVVAGFVLFFPNYPSFLAKQGFYIEDIFMREPYRRKGFGKLLLTAVAKQAVKLGVGRVEWIVIDWNVNAINFYEQMGAQVFKEWRLCRLTGDALQAIDKLNI | 12700 ± 3520 µM | 0.58 ± 0.09 s⁻¹ | 440 ± 120 µM | 1.59 ± 0.08 s⁻¹ | 1900 ± 420 µM | 1.11 ± 0.12 s⁻¹ | 2260 ± 500 µM | 1.56 ± 0.10 s⁻¹ | 540 ± 130 µM | 2.04 ± 0.20 s⁻¹ | 4040 ± 820 µM | 0.64 ± 0.05 s⁻¹
